Laboratory results reported in patent publication WO2021228904A1 (dated 2021).
Numbering of substitutions follows the chain as printed.

B1: SEQ ID NOs: 573/577 (HCVR/LCVR) (antibody, V domains shown)
VH: QVQLQESGPGLVKPSETLSLTCTASGGSISSSSYYWGWIRQPPGKGLEWIGSIYYSGSTYYNPSLKSRVTISVDTSKNQFSLKLSSVTAADTAVYYCARHPSGLYQLLNWGQGTLVTVSS
VL: AIRMTQSPSSLSASVGDRVTITCQASQDISNYLNWYQQKPGKAPKLLIYDASNLETGVPSRFSGSGSGTDFTFTISSLQPEDIATYYCQQYDNLLSLTFGGGTKVEIK
B2: SEQ ID NOs: 397/401 (HCVR/LCVR) (antibody, V domains shown)
VH: EVQLVQSGAEVKKPGESLRISCKGSGYSFTSYWISWVRQMPGKGLEWMGRIDPSDSYTNYSPSFQGHVTISADKSISTAYLQWSSLKASDTAMYYCARPNPAGGYDSSGWVDAFDIWGQGTRVTVSS
VL: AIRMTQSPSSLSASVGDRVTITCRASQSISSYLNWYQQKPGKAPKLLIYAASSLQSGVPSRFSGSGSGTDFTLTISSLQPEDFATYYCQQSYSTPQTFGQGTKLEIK
B3: SEQ ID NOs: 153/157 (HCVR/LCVR) (antibody, V domains shown)
VH: QVQLVESGGGLVKPGGSLRLSCAASGFTFSSYSMNWVRQAPGKGLEWVSSISSSSSYIYYADSVKGRFTISRDDAKNSLFLQMNSLRAEDTAVYYCAGDQNLYCSGDSCYYHYYGMDVWGQGTVVTVSS
VL: NFMLTQPPSVSVAPGKTARITCGGNNIGSKSVHWYQQKPGQAPVLVIYYDSDRPSGIPERFSGSNSGNTATLTISRVEAGDEADYYCQVWDSSSDHWVFGGGTKLTVL
B4: SEQ ID NOs: 389/393 (HCVR/LCVR) (antibody, V domains shown)
VH: EVQLVESGAEVKKPGSSVKVSCKASGGTFSSYAISWVRQAPGQGLEWMGGIIPIFGTANYAQKFQGRVTITTDESTSTAYMELSSLRSEDTAVYYCARGPRYCSSTSCYAGVYFDYWGQGTRVTVSS
VL: not shown
B5: SEQ ID NOs: 469/473 (HCVR/LCVR) (antibody, V domains shown)
VH: QVQLVQSGAEVKKPGESLRISCKGSGYSFTSHWISWVRQMPGKGLEWMGRIDPSDSYTNYSPSFQGHVTISADKSISTAYLQWSSLKASDTAMYYCARLKVITIFGVVRDDYGMDVWGQGTTVTVSS
VL: QSALTQPASVSGSPGQSITISCTGTSSDVGSYNLVSWYQQHPGKAPKLMIYDSSKRPSGVSNRFSGSKSGNTASLTISGLQAEDEADYYCCSYAGSVFGGGTKLTVL
B6: SEQ ID NOs: 533/537 (HCVR/LCVR) (antibody, V domains shown)
VH: EVQLVESGGGLVKPGGSLRLSCSASGFTFSNYNMDWVRQAPGKGLEWVSSISSSSSYIYLADSVKGRFTISRDNAKNSLYLQMNSLRAEDTAVYYCARVQKDIVVVPVALADYYYYGMDVWGQGTTVTVSS
VL: DIVMTQSPATLSVSPGERATLSCRASQSVSSNLAWYQQKPGQAPRLLIYGASTRATGIPARFSGSGSGTEFTLTISSLQPEDFAVYYCQQCYNWPPWTFGQGTRVEFK
B7: SEQ ID NOs: 453/457 (HCVR/LCVR) (antibody, V domains shown)
VH: EVQLVESGVEVKKPGASVKVSCKAFGYTFTGQDMHWVRQAPGQGLEWMGWINPSSAGTNYAQKFQGRVTMTRDTSISTAYMELSRLRSDDTSVYYCRKMLTIFGKVNQTMLLISGAKGQWSPSLQWGQGTMVTVSS
VL: DIVMTQTPLSLSVTPGQPASISCKSGQSLLHSDGKTYLYWYLQKPGQPPQLLIYEVSNRFSGVPDRFSGSGSGTDFTLKISRVEAEDVGVYYCMQSIQLPPTFGQGTKVEIK
B8: COVA2-07 (antibody, V domains shown)
VH: EVQLVETGGGLIQPGGSLRLSCAASGLTVSSNYMNWVRQAPGKGLEWVSVIYSGGSTYYADSVKGRFTISRDNSKNTLYLQMNSLRAEDTAVYYCAREAYGMDVWGQGTMVTVSS
VL: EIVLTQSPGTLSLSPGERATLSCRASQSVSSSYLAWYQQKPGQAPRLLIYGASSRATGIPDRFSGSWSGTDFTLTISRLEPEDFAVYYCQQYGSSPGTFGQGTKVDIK
B9: SEQ ID NOs: 213/209 (HCVR/LCVR) (antibody, V domains shown)
VH: EVQLVESGPGLVKPSETLSLTCTVSGGSISSYYWSWIRQPPGKRLEWIGYIYYSGSTNYNPSLKSRVTISVDTSKNQFSLKLNSVTAADTAAYYCARGFDYWGQGTRVTVSS
VL: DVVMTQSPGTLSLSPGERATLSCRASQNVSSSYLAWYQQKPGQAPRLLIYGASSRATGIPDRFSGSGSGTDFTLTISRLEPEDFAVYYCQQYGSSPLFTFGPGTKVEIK
B10: 002_P1H2 (antibody, V domains shown)
VH: EVQLVESGAEVKKPGSSVKVSCKASGGTLSSYAISWVRQAPGQGLEWMGGIIPIFGTANYAQKFQGRVTITTDESTSTAYMELSSLRSEDTAVYYCARGPRGCSSTSCYGSYFDYWGQGTLVTVSS
VL: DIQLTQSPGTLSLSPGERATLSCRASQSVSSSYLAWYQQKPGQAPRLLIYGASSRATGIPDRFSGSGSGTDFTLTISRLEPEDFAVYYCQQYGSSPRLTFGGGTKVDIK
B11: COVA1-22 (antibody, V domains shown)
VH: EVQLVESGAEVKKPGASVKVSCKASGYTFTSYGISWVRQAPGQGLEWMGWISAYNGYTNSAQKLQGRVTMTTDTSTSTAYMELRSLRSDDTAVYYCARDLVDTAMVQTLDDYGMDVWGQGTMVTVSS
VL: not shown
B12: SEQ ID NOs: 565/569 (HCVR/LCVR) (antibody, V domains shown)
VH: EVQLLESGAEVKKPGASVKISCKASGYTFTGYYMHWVRQAPGQGLEWMGWINPNSGGTNYAQKFQGRVTMTRDTSISTAYMELSRLRSDDTAVYYCARGDGDYYDSSGYYRPTLYNWLDPWGQGTRVTVSS
VL: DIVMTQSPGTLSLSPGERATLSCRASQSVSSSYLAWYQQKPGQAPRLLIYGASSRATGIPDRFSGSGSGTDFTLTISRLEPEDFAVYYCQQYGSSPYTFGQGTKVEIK
B13: 002_P1D6 (antibody, V domains shown)
VH: EVQLLESGAEVKKPGESLKISCKGSGYSFTSYWIGWVRQMPGKGLEWMGIIYPGDSDTRYSPSFQGQVTISADKSISTAYLQWSSLKASDTAMYYCARHMRPSIAARPGYQYYMDVWGKGTRVTVSS
VL: not shown
B14: SEQ ID NOs: 429/433 (HCVR/LCVR) (antibody, V domains shown)
VH: EVQLVESGGGVVQPGRSLRLSCAASGFTFSSYGMHWVRQAPGKGLEWVAVIWYDGSNKYYADSVKGRFTISRDNSKNTLYLQMDSLRAEDTAMYYCAKDKAPPCSSGWYYFDYWGQGTLVTVSS
VL: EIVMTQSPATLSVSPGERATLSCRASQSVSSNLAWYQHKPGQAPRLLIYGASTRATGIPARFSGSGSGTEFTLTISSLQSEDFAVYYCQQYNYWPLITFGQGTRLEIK
B15: COVA2-02 (antibody, V domains shown)
VH: VQLQQESGPGLVKPSETLSLTCTVSGGSISSSSYYWGWIRQPPGKGLEWIGSIYYSGSTYYNPSLKSRVTISVDTSKNQFSLKLSSVTAADTAVYYCARRSTSRWGYYYMDVWGKGTRVTVSS
VL: DIVMTQSPSSLSASVGDRVTITCRASQSISNYLNWYQQKPGKAPKLLLYAASDLQSGVPSRFSGSGSGTDFTLTISSLQPEDFATYYCQQSYSTHMSTFGQGTKVDIK
B16: COVA2-29 (antibody, V domains shown)
VH: EVQLVESGGGVVQPGRSLRLSCAASGFTFSSYTMHWVRQAPGKGLEWVAVISYDGSNKYYADSVKGRFTISRDNSKNTLYLQMNSLRAEDTAVYYCASLPVVPAAIGPLPAFDIWGQGTMVTVSS
VL: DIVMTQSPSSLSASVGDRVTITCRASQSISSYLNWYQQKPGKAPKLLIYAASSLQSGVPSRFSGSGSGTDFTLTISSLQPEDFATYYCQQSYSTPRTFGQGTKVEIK
B17: COVA1-16 (antibody, V domains shown)
VH: QVQLVQSGAEVKKPGASVKVSCKASGYTFTSYYMHWVRQAPGQGLEWMGIINSSGGSTSYAQKFQGRVTMTRDTSTSTVYMELSSLRSEDTAVYYCARPPRNYYDRSGYYQRAEYFQHWGQGTLVTVSS
VL: DIQLTQSPSSLSASVGDRVTITCQASQDISNYLNWYQQRPGKAPKLLIYDASNLETGVPSRFSGSGSGTDFTFTISSLQPEDIATYYCQQYDNPPLTFGGGTKLEIK
B18: 002_P2H1 (antibody, V domains shown)
VH: EVQLVESGGGLIQPGGSLRLSCAASGFTVSSNYMSWVRQAPGKGLEWVSVIYSGGSTYYADSVKGRFTISRDNSKNTLYLQMNSLRAEDTAVYYCASPLLLTPPDYYYYMDVWGKGTMVTVSS
VL: DVVMTQSPSSLSVSVGDRVTITCRASQGIRNDLGWYQQKPGKAPKRLIYAASSLQSGVPSRFSGSGSGTEFTLTISSLQPEDFATYYCLQHNSYLWTFGQGTKLEIK
B19: SEQ ID NOs: 337/341 (HCVR/LCVR) (antibody, V domains shown)
VH: QVQLVQSGAEVKKPGATVKISCKVSGYTFTDYYMHWVQQAPGKGLEWMGLVDPEDGETIYAEKFQGRVTITADTSTDTAYMELSSLRSEDTAVYYCASSDSSGFVGSRGFDYWGQGTRVTVSS
VL: B18 VL with V2I, V3Q, M4L, V13A, L95P, W96P, T97L, L104V
B20: SEQ ID NOs: 629/633 (HCVR/LCVR) (antibody, V domains shown)
VH: QVQLVESRAEVKKPGSSVKVSCKASGGTFSSYAISWVRQAPGQGLEWMGRIIPILGITNYAQKFQGRVTITADKSTSTAYMELSSLRSEDTAVYYCARDAPDYYDSSGPTYFDYWGQGTLVTVSS
VL: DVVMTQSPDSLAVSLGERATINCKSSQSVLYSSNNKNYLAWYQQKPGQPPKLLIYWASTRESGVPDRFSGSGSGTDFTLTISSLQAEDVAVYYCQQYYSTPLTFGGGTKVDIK
B21: SEQ ID NOs: 201/205 (HCVR/LCVR) (antibody, V domains shown)
VH: QLQLQESGPGLVKPSQTLSLTCTVSGGSISSGGYYWSWIRQLPGKGLEWIGYIYYSGSTYYNPSLKSRVTISVDTSKNQFSLNLSSVTAADTAVYYCARQQLDYYDSSGCFDYWGQGTLVTVSS
VL: DIVMTQSPSFLSASVGDRVTITCRASQGISSYLAWYQQKPGKAPKLLIYAASTLQSGVPSRFSGSGSGTEFTLTISSLQPEDFATYYCQQLHSYPLTFGGGTKVDIK
B22: SEQ ID NOs: 233/237 (HCVR/LCVR) (antibody, V domains shown)
VH: EVQLVESGGGLVQPGGSLRLSCAASGFTFSSYSMNWVRQAPGKGLEWVSYISSSSSTIYYADSVKGRFTISRDNAKNSLYLQMNSLRAEDTAVYYCAREANSDFWSGYLGYFDYWGQGTLVTVSS
VL: EIVMTQSPATLSLSPGERATLSCRASQSVSSYLAWYQQKPGQAPRLLIYDASNRATGIPARFSGSGSGTDFTLTISSLEPEDFAVYYCQQRSNWPQVTFGQGTRLEIK
B23: COVA2-39 (antibody, V domains shown)
VH: QVQLVETGGGLIQPGGSLRLSCAASGFTVSSNYMSWVRQAPGKGLEWVSVIYTGGTTYYADSVKGRFTISRDNSKNTLYLQMNSLRAEDTAVYYCARAHVDTAMVESGAFDIWGQGTRVTVSS
VL: QSALTQPASVSGSPGQSITISCTGTSSDVGSYNLVSWYQQHPGKAPKLMIYEVTKRPSGVSNRFSGSKSGNTASLTISGLQAEDEADYYCCSYAGSSTWVFGGGTKLTVL
B24: 002_P1H10 (antibody, V domains shown)
VH: QVQLVETGGGLIQPGGSLRLSCAASGFTVSSNYMSWVRQAPGKGLEWVSVIYSGGSTYYADSVKGRFTISRDNSKNTLYLQMNSLRAEDTAVYYCARDLDTMGGMDVWGQGTRVTVSS
VL: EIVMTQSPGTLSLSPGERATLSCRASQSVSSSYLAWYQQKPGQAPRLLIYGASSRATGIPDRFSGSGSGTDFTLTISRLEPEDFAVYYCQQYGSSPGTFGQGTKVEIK
B25: SEQ ID NOs: 49/53 (HCVR/LCVR) (antibody, V domains shown)
VH: QVQLVESGAEVKKPGSSVKVSCKASGGTLSSYAITWVRQAPGQGLEWVGGIIPIFGTANYAQKFQGRVTITADESTSTAYMELSSLRSEDTAVYYCARVGAYDSSGYSNDYWGQGTLVTVSS
VL: DIQLTQSPATLSLSPGERATLSCRASQSVSSYLAWYQQKPGQAPRLLIYDASNRATGIPARFSGSGSGTDFTLTISSLEPEDFAVYYCQQRSNWPPRVTFGGGTKVEIK
B26: SEQ ID NOs: 445/449 (HCVR/LCVR) (antibody, V domains shown)
VH: EVQLVESGPGLVKPSQTLSLTCTVSGGSISSGDYYWSWIRQPPGKGLEWIGYIYYSGSTYYNPSLKSRVTISVDTSKNQFSLKLSSVTAADTAVYYCARGVEDPVVPAAIPWCWFDPWGQGTRVTVSS
VL: QSVLTQPPSVSVAPGQTARITCGGNNIGSKSVHWYQQKPGQAPVLVVYDDSDRPSGIPERFSGSNSGNTATLTISRVEAGDEADYYCQVWASSSVVFGGGTKLTVL

Molecular target: stabilized prefusion SARS-CoV-2 S ectodomain (SARS-CoV-2 (Wuhan-Hu-1), UniProt P0DTC2 15-1138)
Experiment: SPR

Row | Binder | Kd [nM]
1 | B1 | ≤ 1
2 | B2 | ≤ 1
3 | B3 | ≤ 1
4 | B4 | ≤ 1
5 | B5 | ≤ 1
6 | B6 | ≤ 1
7 | B7 | ≤ 1
8 | B8 | ≤ 1
9 | B9 | ≤ 1
10 | B10 | ≤ 1
11 | B11 | ≤ 1
12 | B12 | ≤ 1
13 | B13 | ≤ 1
14 | B14 | ≤ 1
15 | B15 | ≤ 1
16 | B16 | ≤ 1
17 | B17 | ≤ 1
18 | B18 | ≤ 1
19 | B19 | ≤ 1
20 | B20 | ≤ 1
21 | B21 | ≤ 1
22 | B22 | ≤ 1
23 | B23 | ≤ 1
24 | B24 | ≤ 1
25 | B25 | ≤ 1
26 | B26 | ≤ 1
